The record followed here is the RNAGym collection of RNA variant scans (doi:10.1021/acssynbio.7b00057).

First the molecules themselves.
B1: Pistol ribozyme (parent)
chain: GGGUCGUUGUUCCAUAAUCGCGUGGAUAUGGCACGCAAGUUUCUACCGGGCACCGUAAAUGUCCGACUGGAGCCGUUCGGGCGGCUAUAAACAGACCUCAGGCCCGAAGCGUGGCGGCACCUGCCGCCGGUGGUAAAAAAGAUCGGAAGAGCACACGUCU

The data set covers variants of B1. In words: aptazyme ON/OFF ratio, guanine; higher = stronger switching; co-transcriptional cleavage with and without guanine.
On to U7C G9U U10A U11C C12A C13G, for which the “aptazyme ON/OFF ratio” value came out at 1.14.

For U7C G9C U10C, the “aptazyme ON/OFF ratio” value amounted to 1.14. The figure for U7C G9C U10G is 1.08; for U7C G9C U10A it is 1.06; for U7C G9C U10A C13U it is 1.05. For the variant U7C G9C U10A C13G, the “aptazyme ON/OFF ratio” value amounted to 1.05. Consider U7C G9C U10A C13A, for which the “aptazyme ON/OFF ratio” value is 1.04. The figure for U7C G9U U10A U11C C12U is 1.1; for U7C G9U U10A U11C C12G it is 1.43. U7C G9U U10A U11C C12A: the “aptazyme ON/OFF ratio” value came to 1.29. As for U7C G9C U10A C12U C13A, the “aptazyme ON/OFF ratio” value turned out to be 1.08. For U7C G9C U10A C12U C13U the value was 1.04. The figure for U7C G9C U10A C12U C13G is 1.07. U7C G9C U10A U11C C12G C13A: the “aptazyme ON/OFF ratio” value turned out to be 1.07. The figure for U7C G9C U10A U11C C12G C13U is 1.17. Regarding U7C G9C U10A U11C C12G C13G, the “aptazyme ON/OFF ratio” value stood at 1.27.

For U7C G9C U10C U11C C12A C13U, the “aptazyme ON/OFF ratio” value was 1.04. The figure for U7C G9C U10C U11C C12A C13A is 1.04; for U7C G9C U10C U11C C12A C13G it is 1.05. For the variant U7C G9C U10C C12A C13G, the “aptazyme ON/OFF ratio” value was found to be 1.06. As to U7C G9C U10C C12A C13U, the “aptazyme ON/OFF ratio” value came out at 1.04. In the case of U7C G9C U10C C12A C13A, the “aptazyme ON/OFF ratio” value came to 1.06.

On to U7C G9U U10A C12U, for which the “aptazyme ON/OFF ratio” value was determined as 1.37. The figure for U7C G9U U10A C12A is 1.82. For the variant U7C G9U U10A C12G, the “aptazyme ON/OFF ratio” value stood at 1.47. For U7C G9C U10A U11A C13U, the “aptazyme ON/OFF ratio” value was 1.05. The figure for U7C G9C U10A U11A C13G is 1.05. The figure for U7C G9C U10A U11A C13A is 1.11; for U7C G9C U10G U11A C13U it is 1.11; for U7C G9C U10G U11A C13G it is 1.05. With U7C G9C U10G U11A C13A, the “aptazyme ON/OFF ratio” value was found to be 1.17. In the case of U7C G9C U10G U11G C12U C13A, the “aptazyme ON/OFF ratio” value came out at 1.07. Consider U7C G9C U10G U11G C12U C13G, for which the “aptazyme ON/OFF ratio” value was 1.13. Take U7C G9C U10G U11G C12U C13U: the “aptazyme ON/OFF ratio” value amounted to 1.12.

For U7C G9U, the “aptazyme ON/OFF ratio” value was 1.05. For U7C G9C the value was 1.03; for U7C G9C U11C C12A C13U, 1.05; for U7C G9C U11C C12A C13G, 1.02.

For the variant U7C G9C U11C C12A C13A, the “aptazyme ON/OFF ratio” value was 1.02. The figure for U7C G9C U10G U11A C12A C13U is 1.4.

Regarding U7C G9C U10G U11A C12A C13G, the “aptazyme ON/OFF ratio” value stood at 1.09. As for U7C G9C U10G U11A C12A C13A, the “aptazyme ON/OFF ratio” value was 1.31. For U7C G9C U11C C12U C13A the value was 1.05; for U7C G9C U11C C12U C13U, 1.03. Consider U7C G9C U11C C12U C13G, for which the “aptazyme ON/OFF ratio” value amounted to 1.03. As for U7C G9C U10C U11A C12A C13G, the “aptazyme ON/OFF ratio” value turned out to be 1.05. For U7C G9C U10C U11A C12A C13A the value was 1.08. The figure for U7C G9C U10C U11A C12A C13U is 1.05; for U7C G9C U11G C12U C13A it is 1.1; for U7C G9C U11G C12U C13U it is 1.21. Consider U7C G9C U11G C12U C13G, for which the “aptazyme ON/OFF ratio” value worked out at 1.12. For U7C G9U U10A U11A C12U C13G the value was 1.14. Turning to U7C G9U U10A U11A C12U C13U, the “aptazyme ON/OFF ratio” value is 1.25. The figure for U7C G9U U10A U11A C12U C13A is 1.27. For U7C G9C U10C C12U the value was 1.09; for U7C G9C U10C C12A, 1.04. For U7C G9C U10C C12G the value was 1.07. Consider U7C G9C U11A C12A, for which the “aptazyme ON/OFF ratio” value was found to be 1.07. For U7C G9C U11A C12G, the “aptazyme ON/OFF ratio” value is 1. U7C G9C U11A C12U: the “aptazyme ON/OFF ratio” value was 1.02. The figure for U7C G9C U10C U11A C12U C13G is 1.07; for U7C G9C U10C U11A C12U C13A it is 1.03. As to U7C G9C U10C U11A C12U C13U, the “aptazyme ON/OFF ratio” value was determined as 1.03. For U7C G9C U11A C12A C13U the value was 1.04.

Consider U7C G9C U11A C12A C13G, for which the “aptazyme ON/OFF ratio” value was determined as 1.07. For U7C G9C U11A C12A C13A, the “aptazyme ON/OFF ratio” value came out at 1.08. For U7C G9C U11G the value was 1.06; for U7C G9C U11A, 1.03; for U7C G9C U11C, 1.03. As to U7C G9C U10A C12G C13A, the “aptazyme ON/OFF ratio” value was 1.07. On to U7C G9C U10A C12G C13G, for which the “aptazyme ON/OFF ratio” value came to 1.11. On to U7C G9C U10A C12G C13U, for which the “aptazyme ON/OFF ratio” value came out at 1.12. In the case of U7C G9C U10C U11G C12G C13A, the “aptazyme ON/OFF ratio” value amounted to 1.11. With U7C G9C U10C U11G C12G C13U, the “aptazyme ON/OFF ratio” value came out at 1.12. Regarding U7C G9C U10C U11G C12G C13G, the “aptazyme ON/OFF ratio” value was found to be 1.11. The figure for U7C G9U U10A U11G C12A C13G is 1.1. In the case of U7C G9U U10A U11G C12A C13U, the “aptazyme ON/OFF ratio” value came to 1.18.

For the variant U7C G9U U10A U11G C12A C13A, the “aptazyme ON/OFF ratio” value stood at 1.05. Regarding U7C G9C U10C U11G C12A, the “aptazyme ON/OFF ratio” value amounted to 1.05. For U7C G9C U10C U11G C12G the value was 1.14; for U7C G9C U10C U11G C12U, 1.01. For U7C G9U U10A U11A C12A the value was 1.2; for U7C G9U U10A U11A C12G, 1.29; for U7C G9U U10A U11A C12U, 1.36.
